Target: human CD3 (human, UniProt P07766 23-207; P04234 22-171; P09693 23-182)
Assay: cell-based or functional assay

Chain of human CD3 (P07766 23-207, chain 1 of 3): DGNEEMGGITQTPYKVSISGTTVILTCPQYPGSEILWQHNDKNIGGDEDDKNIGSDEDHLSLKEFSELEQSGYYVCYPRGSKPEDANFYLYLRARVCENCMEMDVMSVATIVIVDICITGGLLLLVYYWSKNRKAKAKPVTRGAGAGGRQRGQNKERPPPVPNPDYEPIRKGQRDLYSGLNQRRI
Chain of human CD3 (P04234 22-171, chain 2 of 3): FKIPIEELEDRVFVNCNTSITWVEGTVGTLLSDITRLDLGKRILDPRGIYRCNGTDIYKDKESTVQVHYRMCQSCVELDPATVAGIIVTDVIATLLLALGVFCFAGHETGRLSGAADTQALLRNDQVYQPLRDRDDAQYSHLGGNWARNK
Chain of human CD3 (P09693 23-182, chain 3 of 3): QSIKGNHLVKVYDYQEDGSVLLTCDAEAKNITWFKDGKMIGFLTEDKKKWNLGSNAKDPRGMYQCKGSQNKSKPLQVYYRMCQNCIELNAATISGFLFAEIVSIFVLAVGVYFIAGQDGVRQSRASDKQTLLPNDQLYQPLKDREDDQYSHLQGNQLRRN

Binder | CD4 EC50 (nM); CD69/CD25 on human T cells, plate-coated antibody [nM] | CD8 EC50 (nM); CD69/CD25 on human T cells, plate-coated antibody [nM]
mAb 155 (antibody, V domains shown) VH: EVQLVESGGGLVKTGGSLRLSCVASGFSFKKAWMNWVRQAPGKGLEWVGRIKRNTDGGTADYAAPVKGRFTLSRDDSKKTLFLQMNSLKTEDTAVYYCTTLDSSSYYVGYYYMDVWGKGTTVTVSS VL: DIQMTQSPSSVSASVGDRVIITCRASQDINNWLAWYQQKPGKAPKLLIYTASSLQSGVPSRFSGSGSGTDFTLTIGSLQPEDFATYYCQQAHSLPISFGQGTRLDIK | 6.25 | 6.29
mAb 164 (antibody, V domains shown) VH: EVQLVESGGGLVKTGGSLRLSCVASGFSFKKAWMNWVRQAPGKGLEWVGRIKRNTDGGTADYAAPVKGRFTLSRDDSKKTLFLQMNSLKTEDTAVYYCTTLDSSSYYVGYYYMDVWGKGTTVTVSS VL: DIQMTQSPSSVSASVGDRVTITCRASQDIKNWLAWYQQKPGKAPKLLIYTASSLQSGVPSRFSGSGSGTDFTLTIGSLQPEDFATYYCQQAHSLPITFGQGTRLEIK | 6.84 | 6.62
mAb 165 (antibody, V domains shown) VH: EVQLVESGGGLVKTGGSLRLSCVASGFSFKKAWMNWVRQAPGKGLEWVGRIKRNTDGGTADYAAPVKGRFTLSRDDSKRTLYLQMNSLKTEDTAVYYCTTLDSSSRYVGYYYMDVWGKGTTVTVSS VL: DIQMTQSPSSVSASVGDRVIITCRASQDINNWLAWYQQKPGKVPKLLIYTASSLQSGVPSRFSGSGSGTDFTLTIGSLQPEDFATYYCQQAHSLPITFGQGTRLEIK | 6.48 | 6.57
mAb 157 (antibody, V domains shown) VH: EVQLVESGGGLVKTGGSLRLSCVASGFSFKKAWMNWVRQAPGKGLEWVGRIKRTADGGATDYAAPVKGRFTLSRDDSKNTLYLQMNSLKTEDTAVYYCTTLDSSSWYVGYYYMDVWGKGTTVTVSS VL: DIHMTQAPSSVSASVGDRVTFTCRASQDINNWLAWYQQKPGKAPKLLIYTASSLQSGVPSRFSGSGSGTDFTLTISSLQPEDFATYYCQQAHSLPITFGQGTRLGIK | 6.42 | 6.57
mAb 169 (antibody, V domains shown) VH: EVQLVESGGGLVKTGGSLRLSCVASGFSFKKAWMNWVRQAPGKGLEWVGRIKRNTDGGTADYAAPVKGRFTLSRDDSKKTLFLQMNSLKTEDTAVYYCTTLDSSSYYVGYYYMDVWGKGTTVTVSS VL: DIQMTQSPSSVSASVGDRVIITCRASQDINNWLAWYQQKPGKAPKLLIYTASSLQSGVPSRFSGSGSGTDFILTIGSLQPEDFATYYCQQAHSLPITFGQGTRLEIK | 6.49 | 6.67
mAb 163 (antibody, V domains shown) VH: EVQLVESGGGLVKTGGSLRLSCVASGFSFKKAWMNWVRQVPGKGLEWVGRIKRNTDGGTADYAAPVKGRFTLSRDDSKKTLFLQMNSLKTEDTAVYYCTTLDSSSYYVGYYYMDVWGKGTTVTVSS VL: DIQMTQSPSSVSASVGDRVIITCRASQDINNWLAWYQQKPGKAPKLLIYTASSLQSGVPSRFSGSGSGTDFTLTIGSLQPEDFATYYCQQAHSLPITFGQGTRLEIK | 6.3 | 6.99
mAb 166 (antibody, V domains shown) VH: EVQLVESGGGLVKTGGSLRLSCVASGFSFKKAWMNWVRQAPGRGLEWVGRIKRNTDGGTTDYAAPVKGRFTLSRDDSKNMLYLQMNSLKTEDTAVYYCTTLDSSSLYVGYYYMDVWGKGTTVTVSS VL: DIQMTQSPSSVSASVGDRVTITCRASQDINNWLAWYQQKPGKAPKLLIYTASSLQSGVPSRFSGSGSGTDFTLTISSLQPEDFATYFCQQAHSLPITFGQGTRLEIT | 10.5 | 10.6
mAb 156 (antibody, V domains shown) VH: EVQLVESGGGLVKTGGSLRLSCVASGFSFKKAWMNWVRQAPGKGLEWVGRIKRNTDGGTADYAAPVKGRFTLSRDDSKKTLFLQMNSLKTEDTAVYYCTTLDSSSYYVGYYYMDVWGKGTTVTVSS VL: DIQMTQSPSSVSASVGDRVIITCRASQDINNWLAWYQQKAGKAPKLLIYTASSLQSGVPSRFSGSGSGTDFTLTIGSLQPEDFATYYCQQAHSLPITFGQGTRLEIK | 6.25 | 6.25
mAb 167 (antibody, V domains shown) VH: EVHLVESGGGLVQPGRSLRLSCAASGFTFDDYAMHWVRQAPGKGLEWVSGISWNSGTIGYADSVKGRFTISRDNAKNSLYLEMNSLRAEDTALYYCAKDSSGYGHYYHYYIDVWGTGTTVTVSS VL: EIVMTQSPATLSVSPGGRATLSCRASQSVGSNLAWYQQKPGQAPRLLIYDASTRATGIPARFRGSGSGTEFTLTISGLQSEDFAVYYCQLYYNWPHFGQGTRLEIK | 6.3 | 6.36
mAb 170 (antibody, V domains shown) VH: EVQLVESGGGLVRPGRSLRLSCAASGFTFDDYTMHWVRQAPGKGLEWVSGISWNSGSIGYADSVKGRFTISRDNAKNSLYLQMNSLRAEDTALYYCSKDSSGYGYYLNYSLDVWGKGTTVTVSS VL: not shown | 14.6 | 15.1
mAb 52 (antibody, V domains shown) VH: QVQLVQSGAEVKKPGASVKVSCKASGYTFTSHDINWVRQATGQGLEWMGWLNPNSGKTGYAQKFQGRVTMARDTSMYTADMELSSLRFEDTAVYYCARVGHYDMWPGFFSFDYWGQGTLVTVSS VL: DIQMTQSPSSLSASVGDRIIITCRASQDIRNDLGWYQQKPGKAPKRLIYAASSLQSGVPSRFSGSRSGTEFTLTISSLHPEDFATYYCLQHRSYPYTFGQGTNLEIK | 8.79 | 9.48
mAb 53 (antibody, V domains shown) VH: QVQLVQSGAEVKKPGASVKVSCKASGYTFTSYDINWVRQATGQGLEWMGWMNPKSGKTGYAQKFQGRITMTRNTPISTVYMDLSSLRSEDTAVYYCAREGHYDFWTGYYSFDYWGQGTLVTVSS VL: DIQMTQSPSSLSASVGDRVTITCRASQGIRNDLGWYQQTPGKAPKRLIYAASSLQSGVPSRFSGSGSGTEFTLTISSLQPEDFATYYCLQHYSYPYTFGQGTKLEIK | 18.3 | 18.3
mAb 172 (antibody, V domains shown) V domain 1: EVQLVESGGGLVQPGRSLRLSCTTSGFTFDDYTMHWVRQVPGKGLEWVSDISWNSGSVGYADSVKGRFTISRDNAKNSLYLQMNSLRAEDTALYYCVKDSSGYGHYFHYYMDVWGKGTTVTVSS V domain 2: EVQLVESGGGLVQPGRSLRLSCTTSGFTFDDYTMHWVRQVPGKGLEWVSDISWNSGSVGYADSVKGRFTISRDNAKNSLYLQMNSLRAEDTALYYCVKDSSGYGHYFHYYMDVWGKGTTVTVSS | 23.2 | 22.9
mAb 158 (antibody, V domains shown) VH: EVQLVESGGGLVQPGRSLRLSCAASGFTFADYTMHWVRQVPGKGLEWVSGISWNSGSVDYADSVKGRFTISRDNAKKTLYLQMNSLRAEDTALYYCAKDSSGYGHYYFYYLDVWGKGTTVTVSS VL: EIVMTQSPATLSVSPGERATLSCRATQSVSSNLAWYQQKPGQAPRLLIYSTSTRATGIPARFSGSRSGTEFTLTISSLQSEDSAVYYCQQYNNWPHFGQGTRLEIK | 6.67 | 6.62
mAb 171 (antibody, V domains shown) VH: EVQLVESGGGLVQPGRSLRLSCAASGFTFADYTMHWVRQAPGQGLEWVSGISWNSGSIDYADSVKGRFIISRDNAKKTLYLQMNSLRAEDTALYYCAKDSSGYGHYYFYYLDVWGKGTTVTVSS VL: EIVMTQSPATLSVSPGERATLSCRASQSVSSNLAWYQQKPGQAPRLLIYSTSTRATGIPARFSGSRSGTEFTLTISSLQSEDSAVYYCQQYNNWPHFGQGTRLEIK | 6.86 | 6.71
mAb 161 (antibody, V domains shown) VH: EVQLVESGGGLVQPGRSLRLSCAASGITFADYTMHWVRQAPGKGLEWVSGISWNSGSIDYADSVKGRFTISRDNAKKTLYLQMNRLRAEDTALYYCAKDSSGYGHYYFYYLDVWGKGTTVTVSS VL: EIVMTQSPATLSVSPGERATLSCRASQSVSNNLAWYQQKPGQAPRLLIYSTSTRATGIPARFSGSRSGTEFTLTISSLQSEDSAVYYCQQYNNWPHFGQGTRLEIK | 6.76 | 7.89
mAb 160 (antibody, V domains shown) VH: EVQLVESGGGLVQPGRSLRLSCAVSGFTFNDYTMHWVRQVPGKGLEWVSGISWNSGSIGYADSVKGRFTISRDNAKNSLYLQMNSLRAEDTALYFCAKDSSGYGHYYYYYMDVWGRGTTVTVSS VL: EIVMTQSPATLSVSPGERATLSCRASQSVRKNLAWYQQKPGQAPRLLIYGASTRATGIPARFSGSGSGTEFTLTISSLQSEDFAVYYCQLYNNWPHFGQGTRLEIK | 6.95 | 8.47
mAb 162 (antibody, V domains shown) VH: EVQLVESGGGLVQPGRSLRLSCAASGFTFDNYAMHWVRQAPGKGLEWVSGISWNSGSIGYADSVKGRFTISRDNAKNSLYLELNSLRAEDTALYYCAKDSSGYGYYYNYYMDVWGKGTTVTVSS VL: EIVMTQSPATLSVSPGERATLSCRASQSVRSNLAWYQQKPGQAPRLLIYGASTRATGIPAKFSGSGSGTEFTLTISSLQSEDFAVYYCQYYYNWPHFGQGTRLEIK | 12.6 | 12.7
mAb 159 (antibody, V domains shown) VH: EVQLVESGGGLVQPGRSLRLSCAASGFTFNGYTMHWVRQVPGKGLEWVSGISWNSGSVGYADSVKGRFTISRDNAKNSLFLQMNSLRAEDTALYYCAKDSSGYGHYYYYYMDVWGKGTTVTVSS VL: EIVMTQSPATLSVSPGERATLSCRASQSVRNNLAWYQQKPGQAPRLLIYGASTRATGIPARFSGSGSGTEFTLTISSLQSEDFALYYCQLYNNWPHFGQGTRLEIK | 12 | 11.9

From US20230295310A1 (ABCELLERA BIOLOGICS, published 2023)
